Laboratory results taken from patent publication US20110166062A1 (INDIANA UNIVERSITY RESEARCH AND TECHNOLOGY, published 2011).
Where no end group is shown, it is not given here. [ ]: non-standard residue; d: D form. The star is where a group is joined. C18 fatty acyl = 18 carbon fatty acyl group covalently attached to Lys; PEG 40 kDa = PEG (40 kDa) covalently attached to Cys; Palmitoyl = CCCCCCCCCCCCCCCC(=O)*; Myristoyl = CCCCCCCCCCCCCC(=O)*; Dab = NCC[C@H](N)C(=O)O; Abu = CC[C@H](N)C(=O)O; Aib = CC(C)(N)C(=O)O

B1: mt-194 (peptide)
peptide: [Aib]QGTFTSDYSIYLDEEAVRLFVNWLLAGGPSSGAPPPS-NH2
modifications: N-terminus assumed
SMILES: CC[C@H](C)[C@H](NC(=O)[C@H](CO)NC(=O)[C@H](Cc1ccc(O)cc1)NC(=O)[C@H](CC(=O)O)NC(=O)[C@H](CO)NC(=O)[C@@H](NC(=O)[C@H](Cc1ccccc1)NC(=O)[C@@H](NC(=O)CNC(=O)[C@H](CCC(N)=O)NC(=O)C(C)(C)N)[C@@H](C)O)[C@@H](C)O)C(=O)N[C@@H](Cc1ccc(O)cc1)C(=O)N[C@@H](CC(C)C)C(=O)N[C@@H](CC(=O)O)C(=O)N[C@@H](CCC(=O)O)C(=O)N[C@@H](CCC(=O)O)C(=O)N[C@@H](C)C(=O)N[C@H](C(=O)N[C@@H](CCCNC(=N)N)C(=O)N[C@@H](CC(C)C)C(=O)N[C@@H](Cc1ccccc1)C(=O)N[C@H](C(=O)N[C@@H](CC(N)=O)C(=O)N[C@@H](Cc1c[nH]c2ccccc12)C(=O)N[C@@H](CC(C)C)C(=O)N[C@@H](CC(C)C)C(=O)N[C@@H](C)C(=O)NCC(=O)NCC(=O)N1CCC[C@H]1C(=O)N[C@@H](CO)C(=O)N[C@@H](CO)C(=O)NCC(=O)N[C@@H](C)C(=O)N1CCC[C@H]1C(=O)N1CCC[C@H]1C(=O)N1CCC[C@H]1C(=O)N[C@@H](CO)C(N)=O)C(C)C)C(C)C
B2: mt-325 (peptide)
peptide: Y[Aib]QGTF[Abu]SDYSIYLDKQAA[Aib]EFVNWLLAGGPSSGAPPPSC-NH2
modifications: N-terminus assumed
SMILES: CC[C@H](NC(=O)[C@H](Cc1ccccc1)NC(=O)[C@@H](NC(=O)CNC(=O)[C@H](CCC(N)=O)NC(=O)C(C)(C)NC(=O)[C@@H](N)Cc1ccc(O)cc1)[C@@H](C)O)C(=O)N[C@@H](CO)C(=O)N[C@@H](CC(=O)O)C(=O)N[C@@H](Cc1ccc(O)cc1)C(=O)N[C@@H](CO)C(=O)N[C@H](C(=O)N[C@@H](Cc1ccc(O)cc1)C(=O)N[C@@H](CC(C)C)C(=O)N[C@@H](CC(=O)O)C(=O)N[C@@H](CCCCN)C(=O)N[C@@H](CCC(N)=O)C(=O)N[C@@H](C)C(=O)N[C@@H](C)C(=O)NC(C)(C)C(=O)N[C@@H](CCC(=O)O)C(=O)N[C@@H](Cc1ccccc1)C(=O)N[C@H](C(=O)N[C@@H](CC(N)=O)C(=O)N[C@@H](Cc1c[nH]c2ccccc12)C(=O)N[C@@H](CC(C)C)C(=O)N[C@@H](CC(C)C)C(=O)N[C@@H](C)C(=O)NCC(=O)NCC(=O)N1CCC[C@H]1C(=O)N[C@@H](CO)C(=O)N[C@@H](CO)C(=O)NCC(=O)N[C@@H](C)C(=O)N1CCC[C@H]1C(=O)N1CCC[C@H]1C(=O)N1CCC[C@H]1C(=O)N[C@@H](CO)C(=O)N[C@@H](CS)C(N)=O)C(C)C)[C@@H](C)CC
B3: mt-276 (peptide)
peptide: Y[Aib]QGTFTSDYSIYLD[Dab]QAA[Aib]EFVNWLLAGGPSSGAPPPSC-NH2
modifications: N-terminus assumed
SMILES: CC[C@H](C)[C@H](NC(=O)[C@H](CO)NC(=O)[C@H](Cc1ccc(O)cc1)NC(=O)[C@H](CC(=O)O)NC(=O)[C@H](CO)NC(=O)[C@@H](NC(=O)[C@H](Cc1ccccc1)NC(=O)[C@@H](NC(=O)CNC(=O)[C@H](CCC(N)=O)NC(=O)C(C)(C)NC(=O)[C@@H](N)Cc1ccc(O)cc1)[C@@H](C)O)[C@@H](C)O)C(=O)N[C@@H](Cc1ccc(O)cc1)C(=O)N[C@@H](CC(C)C)C(=O)N[C@@H](CC(=O)O)C(=O)N[C@@H](CCN)C(=O)N[C@@H](CCC(N)=O)C(=O)N[C@@H](C)C(=O)N[C@@H](C)C(=O)NC(C)(C)C(=O)N[C@@H](CCC(=O)O)C(=O)N[C@@H](Cc1ccccc1)C(=O)N[C@H](C(=O)N[C@@H](CC(N)=O)C(=O)N[C@@H](Cc1c[nH]c2ccccc12)C(=O)N[C@@H](CC(C)C)C(=O)N[C@@H](CC(C)C)C(=O)N[C@@H](C)C(=O)NCC(=O)NCC(=O)N1CCC[C@H]1C(=O)N[C@@H](CO)C(=O)N[C@@H](CO)C(=O)NCC(=O)N[C@@H](C)C(=O)N1CCC[C@H]1C(=O)N1CCC[C@H]1C(=O)N1CCC[C@H]1C(=O)N[C@@H](CO)C(=O)N[C@@H](CS)C(N)=O)C(C)C
B4: mt-324 (peptide)
peptide: Y[Aib]QGTFSSDYSIYLDKQAA[Aib]EFVNWLLAGGPSSGAPPPSC-NH2
modifications: N-terminus assumed
SMILES: CC[C@H](C)[C@H](NC(=O)[C@H](CO)NC(=O)[C@H](Cc1ccc(O)cc1)NC(=O)[C@H](CC(=O)O)NC(=O)[C@H](CO)NC(=O)[C@H](CO)NC(=O)[C@H](Cc1ccccc1)NC(=O)[C@@H](NC(=O)CNC(=O)[C@H](CCC(N)=O)NC(=O)C(C)(C)NC(=O)[C@@H](N)Cc1ccc(O)cc1)[C@@H](C)O)C(=O)N[C@@H](Cc1ccc(O)cc1)C(=O)N[C@@H](CC(C)C)C(=O)N[C@@H](CC(=O)O)C(=O)N[C@@H](CCCCN)C(=O)N[C@@H](CCC(N)=O)C(=O)N[C@@H](C)C(=O)N[C@@H](C)C(=O)NC(C)(C)C(=O)N[C@@H](CCC(=O)O)C(=O)N[C@@H](Cc1ccccc1)C(=O)N[C@H](C(=O)N[C@@H](CC(N)=O)C(=O)N[C@@H](Cc1c[nH]c2ccccc12)C(=O)N[C@@H](CC(C)C)C(=O)N[C@@H](CC(C)C)C(=O)N[C@@H](C)C(=O)NCC(=O)NCC(=O)N1CCC[C@H]1C(=O)N[C@@H](CO)C(=O)N[C@@H](CO)C(=O)NCC(=O)N[C@@H](C)C(=O)N1CCC[C@H]1C(=O)N1CCC[C@H]1C(=O)N1CCC[C@H]1C(=O)N[C@@H](CO)C(=O)N[C@@H](CS)C(N)=O)C(C)C

biological target: GLP-1 receptor (UniProt P43220 24-463, limits assumed); assay: cell-based or functional assay

| Binder | EC50 | relative activity |
| --- | --- | --- |
| B1 | 4.16 nM | 0.63% |
| FTSDYSIYLDEQAAKEFVNWLLAGGPSSGAPPPS-NH2 (not fully specified) [mt-192] | 47 nM | 0.06% |

biological target: glucagon receptor (UniProt P47871 26-477, limits assumed); assay: cell-based or functional assay
Sequence (P47871 26-477 limits assumed): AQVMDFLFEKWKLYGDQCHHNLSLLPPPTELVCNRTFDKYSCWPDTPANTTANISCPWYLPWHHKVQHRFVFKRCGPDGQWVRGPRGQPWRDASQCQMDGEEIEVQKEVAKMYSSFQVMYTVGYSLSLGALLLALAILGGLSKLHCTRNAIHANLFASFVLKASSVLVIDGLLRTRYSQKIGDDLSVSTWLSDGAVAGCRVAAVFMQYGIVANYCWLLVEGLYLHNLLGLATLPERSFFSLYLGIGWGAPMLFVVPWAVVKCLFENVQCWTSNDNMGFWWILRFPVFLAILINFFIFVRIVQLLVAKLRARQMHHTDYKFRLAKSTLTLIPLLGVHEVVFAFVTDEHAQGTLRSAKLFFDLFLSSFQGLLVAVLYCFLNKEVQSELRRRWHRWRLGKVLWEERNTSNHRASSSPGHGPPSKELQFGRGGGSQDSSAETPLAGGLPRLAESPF

| Binder | EC50 | relative activity |
| --- | --- | --- |
| B2 | 0.0915 nM | 86.5% |
| B3 | 0.0537 nM | 77.7% |
| Y[Aib]EGTFTSDYSIYLDKQAA[Aib]EFVNWLLAGGPSSGAPPPSK(Myristoyl)C-NH2 [mt-339] | 8.72 nM |  |
| Y[Aib]EGTFTSDYSIYLDKQAA[Aib]EFVC(PEG 40 kDa)WLLAGGPSSGAPPPSK(C18 fatty acyl)-NH2 [mt-310] | 0.775 nM | 8.24% |
| Y[Aib]EGTFTSDYSIYLDKQAA[Aib]EFVC(PEG 40 kDa)WLLAGGPSSGAPPPSK(Myristoyl)-NH2 [mt-309] | 3.61 nM | 1.77% |
| Y[Aib]EGTFTSDYSIYLDKQAA[Aib]EFVNWLLAGGPSSGAPPPSKC-NH2 [mt-340] | 10.5 nM |  |
| Y[Aib]EGTFTSDYSIYLDKQAA[Aib]EFVC(PEG 40 kDa)WLLAGGPSSGAPPPSK-NH2 (also: PEG linkage structure not given here) [mt-331] | 408 nM | 0.02% |
| Y[Aib]EGTFTSDYSIYLDKQAA[Aib]EFVC(PEG 40 kDa)WLLAGGPSSGAPPPSK(Palmitoyl)-NH2 [mt-298] | 1.76 nM | 3.63% |
| B4 | 1.23 nM | 6.41% |
| Y[Aib]EGTFTSDYSIYLDKQAA[Aib]EFVC(PEG 40 kDa)WLLAGGPSSGAPPPSK-NH2 (not fully specified) [mt-311] | 197 nM | 0.03% |

biological target: GLP-1 receptor (UniProt P43220 24-463, limits assumed); assay: cell-based or functional assay; remark: another data set of the same source

| Binder | EC50 | relative activity |
| --- | --- | --- |
| B2 | 2.68 nM | 0.83% |
| B3 | 0.0066 nM | 108% |
| Y[Aib]EGTFTSDYSIYLDKQAA[Aib]EFVNWLLAGGPSSGAPPPSK(Myristoyl)C-NH2 [mt-339] | 0.0092 nM |  |
| Y[Aib]EGTFTSDYSIYLDKQAA[Aib]EFVC(PEG 40 kDa)WLLAGGPSSGAPPPSK(C18 fatty acyl)-NH2 [mt-310] | 0.0062 nM | 253% |
| Y[Aib]EGTFTSDYSIYLDKQAA[Aib]EFVC(PEG 40 kDa)WLLAGGPSSGAPPPSK(Myristoyl)-NH2 [mt-309] | 0.0104 nM | 151% |
| Y[Aib]EGTFTSDYSIYLDKQAA[Aib]EFVNWLLAGGPSSGAPPPSKC-NH2 [mt-340] | 0.0061 nM |  |
| Y[Aib]EGTFTSDYSIYLDKQAA[Aib]EFVC(PEG 40 kDa)WLLAGGPSSGAPPPSK-NH2 (also: PEG linkage structure not given here) [mt-331] | 0.448 nM | 4.53% |
| Y[Aib]EGTFTSDYSIYLDKQAA[Aib]EFVC(PEG 40 kDa)WLLAGGPSSGAPPPSK(Palmitoyl)-NH2 [mt-298] | 0.0087 nM | 180% |
| B4 | 0.23 nM | 9.68% |
| Y[Aib]EGTFTSDYSIYLDKQAA[Aib]EFVC(PEG 40 kDa)WLLAGGPSSGAPPPSK-NH2 (not fully specified) [mt-311] | 0.217 nM | 7.22% |

biological target: T1, GIP receptor (UniProt P48546 22-466); assay: cell-based or functional assay
T1 sequence (looked up): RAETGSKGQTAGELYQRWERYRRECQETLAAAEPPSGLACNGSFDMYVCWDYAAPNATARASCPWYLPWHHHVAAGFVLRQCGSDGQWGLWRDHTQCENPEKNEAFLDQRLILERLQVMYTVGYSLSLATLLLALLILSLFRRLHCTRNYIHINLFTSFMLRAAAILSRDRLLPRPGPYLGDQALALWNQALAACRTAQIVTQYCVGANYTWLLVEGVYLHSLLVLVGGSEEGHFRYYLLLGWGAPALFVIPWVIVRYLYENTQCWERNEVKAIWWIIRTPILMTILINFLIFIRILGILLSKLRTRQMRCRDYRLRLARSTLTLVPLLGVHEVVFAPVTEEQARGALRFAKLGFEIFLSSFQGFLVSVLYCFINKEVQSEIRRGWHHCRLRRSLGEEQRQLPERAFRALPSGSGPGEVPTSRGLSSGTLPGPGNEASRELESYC

| Binder | EC50 | relative activity |
| --- | --- | --- |
| B2 | 0.0105 nM | 111% |
| B3 | 0.008 nM | 174% |
| Y[Aib]EGTFTSDYSIYLDKQAA[Aib]EFVNWLLAGGPSSGAPPPSK(Myristoyl)C-NH2 [mt-339] | 0.004 nM |  |
| Y[Aib]EGTFTSDYSIYLDKQAA[Aib]EFVC(PEG 40 kDa)WLLAGGPSSGAPPPSK(C18 fatty acyl)-NH2 [mt-310] | 0.0075 nM | 275% |
| Y[Aib]EGTFTSDYSIYLDKQAA[Aib]EFVC(PEG 40 kDa)WLLAGGPSSGAPPPSK(Myristoyl)-NH2 [mt-309] | 0.0091 nM | 226% |
| Y[Aib]EGTFTSDYSIYLDKQAA[Aib]EFVNWLLAGGPSSGAPPPSKC-NH2 [mt-340] | 0.0028 nM |  |
| Y[Aib]EGTFTSDYSIYLDKQAA[Aib]EFVC(PEG 40 kDa)WLLAGGPSSGAPPPSK-NH2 (also: PEG linkage structure not given here) [mt-331] | 0.0968 nM | 10.6% |
| Y[Aib]EGTFTSDYSIYLDKQAA[Aib]EFVC(PEG 40 kDa)WLLAGGPSSGAPPPSK(Palmitoyl)-NH2 [mt-298] | 0.0051 nM | 404% |
| B4 | 0.0387 nM | 30.2% |
| Y[Aib]EGTFTSDYSIYLDKQAA[Aib]EFVC(PEG 40 kDa)WLLAGGPSSGAPPPSK-NH2 (not fully specified) [mt-311] | 0.0545 nM | 37.8% |
